The test system of data set [1] is HeLa Kyoto. Kind of data set: solubility change mitosis vs G1/S (difference of NP-40 vs SDS log2 ratios) (log2 ratio difference); higher = more soluble in mitosis.
The test system of data set [2] is HeLa Kyoto. Kind of data set: melting temperature (median over replicates), in situ; higher = more thermally stable.
Data set [3] relates to HeLa Kyoto. Kind of data set: solubility in G1/S (NP-40 vs SDS abundance) (log2 ratio); higher = more soluble. To be noted: cell cycle stage: G1/S.
Data set [4] has as its system HeLa Kyoto. Kind of data set: thermal stability score vs G1/S (z-score of summed log2 fold changes over temperatures); higher = more thermally stable than in G1/S.
[5] abbreviates: cell cycle stage: early G1 (4.5 h after nocodazole release).
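Wherever melting temperature (median over replicates), in situ is given: HeLa Kyoto cells synchronized by double thymidine or nocodazole block, proteins quantified by TMT10plex mass spectrometry, three independent biological replicates.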
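Wherever solubility change mitosis vs G1/S (difference of NP-40 vs SDS log2 ratios) is given: synchronized HeLa Kyoto cells (double thymidine block for G1/S, nocodazole release for mitosis), protein amounts in NP-40 versus SDS lysates quantified by mass spectrometry, three biological replicates.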
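Wherever solubility in G1/S (NP-40 vs SDS abundance) is given: HeLa Kyoto cells arrested at G1/S by double thymidine block, proteins quantified by TMT10plex mass spectrometry in mild NP-40 versus SDS extracts, three biological replicates.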
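Wherever thermal stability score vs G1/S (z-score of summed log2 fold changes over temperatures) is given: synchronized HeLa Kyoto cells, proteins quantified by TMT10plex mass spectrometry, three biological replicates, mitosis taken 0.5 h after nocodazole release, G1/S directly after double thymidine block.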

Regarding “MPGKLRSDAGLESDTAMKKGETLRKQTEEKEKKEKPKSDKTEEIAEEEETVFPKAKQVKKKAEPSEVDMNSPKSKKAKKKEEPSQNDISPKTKSLRKKKEPIEKKVVSSKTKKVTKNEEPSEEEIDAPKPKKMKKEKEMNGETREKSPKLKNGFPHPEPDCNPSEAASEESNSEIEQEIPVEQKEGAFSNFPISEETIKLLKGRGVTFLFPIQAKTFHHVYSGKDLIAQARTGTGKTFSFAIPLIEKLHGELQDRKRGRAPQVLVLAPTRELANQVSKDFSDITKKLSVACFYGGTPYGGQFERMRNGIDILVGTPGRIKDHIQNGKLDLTKLKHVVLDEVDQMLDMGFADQVEEILSVAYKKDSEDNPQTLLFSATCPHWVFNVAKKYMKSTYEQVDLIGKKTQKTAITVEHLAIKCHWTQRAAVIGDVIRVYSGHQGRTIIFCETKKEAQELSQNSAIKQDAQSLHGDIPQKQREITLKGFRNGSFGVLVATNVAARGLDIPEVDLVIQSSPPKDVESYIHRSGRTGRAGRTGVCICFYQHKEEYQLVQVEQKAGIKFKRIGVPSATEIIKASSKDAIRLLDSVPPTAISHFKQSAEKLIEEKGAVEALAAALAHISGATSVDQRSLINSNVGFVTMILQCSIEMPNISYAWKELKEQLGEEIDSKVKGMVFLKGKLGVCFDVPTASVTEIQEKWHDSRRWQLSVATEQPELEGPREGYGGFRGQREGSRGFRGQRDGNRRFRGQREGSRGPRGQRSGGGNKSNRSQNKGQKRSFSKAFGQ [DDX21]”, the “solubility change mitosis (log2)” value with HeLa Kyoto [1] was found to be 0.826. The melting temperature amounted to 49.3 °C with HeLa Kyoto [2] (cell cycle stage: G1/S) and 50.8 °C in the data set with HeLa Kyoto [2] (cell cycle stage: mitosis). Also, in the data set with HeLa Kyoto [3], the “solubility in G1/S (log2)” value was -1.67. In addition, the thermal stability score in the data set with HeLa Kyoto [4] (setting [5]) amounted to 5.09; with HeLa Kyoto [4] (cell cycle stage: mitosis), 6.63.

“MSTKQITCRYFMHGVCREGSQCLFSHDLANSKPSTICKYYQKGYCAYGTRCRYDHTRPSAAAGGAVGTMAHSVPSPAFHSPHPPSEVTASIVKTNSHEPGKREKRTLVLRDRNLSGMAERKTQPSMVSNPGSCSDPQPSPEMKPHSYLDAIRSGLDDVEASSSYSNEQQLCPYAAAGECRFGDACVYLHGEVCEICRLQVLHPFDPEQRKAHEKICMLTFEHEMEKAFAFQASQDKVCSICMEVILEKASASERRFGILSNCNHTYCLSCIRQWRCAKQFENPIIKSCPECRVISEFVIPSVYWVEDQNKKNELIEAFKQGMGKKACKYFEQGKGTCPFGSKCLYRHAYPDGRLAEPEKPRKQLSSQGTVRFFNSVRLWDFIENRESRHVPNNEDVDMTELGDLFMHLSGVESSEP [MKRN2]”: the “solubility change mitosis (log2)” value in the data set on HeLa Kyoto [1] was -0.033. For the same sequence, the melting temperature in the data set with HeLa Kyoto [2] (cell cycle stage: G1/S) was determined as 46.5 °C; with HeLa Kyoto [2] (cell cycle stage: mitosis), 48.6 °C. In addition, the “solubility in G1/S (log2)” value in the data set on HeLa Kyoto [3] was 0.161. Also, the thermal stability score is 0.686 in the data set with HeLa Kyoto [4] (setting [5]) and 1.44 in the data set on HeLa Kyoto [4] (cell cycle stage: mitosis).

Turning to “MARHVFLTGPPGVGKTTLIHKASEVLKSSGVPVDGFYTEEVRQGGRRIGFDVVTLSGTRGPLSRVGLEPPPGKRECRVGQYVVDLTSFEQLALPVLRNADCSSGPGQRVCVIDEIGKMELFSQLFIQAVRQTLSTPGTIILGTIPVPKGKPLALVEEIRNRKDVKVFNVTKENRNHLLPDIVTCVQSSRK [NTPCR]”, the “solubility change mitosis (log2)” value in the data set on HeLa Kyoto [1] is 0.0287. For the same sequence, the values for the melting temperature in the data set on HeLa Kyoto [2] (cell cycle stage: G1/S) and with HeLa Kyoto [2] (cell cycle stage: mitosis) were 52.6 °C and 53.4 °C, respectively. In the data set with HeLa Kyoto [3], the “solubility in G1/S (log2)” value is 0.569. For the same sequence, the thermal stability score in the data set on HeLa Kyoto [4] (setting [5]) was determined as 1.23; in the data set on HeLa Kyoto [4] (cell cycle stage: mitosis), 0.656.

Regarding “MASVAAARAVPVGSGLRGLQRTLPLVVILGATGTGKSTLALQLGQRLGGEIVSADSMQVYEGLDIITNKVSAQEQRICRHHMISFVDPLVTNYTVVDFRNRATALIEDIFARDKIPIVVGGTNYYIESLLWKVLVNTKPQEMGTEKVIDRKVELEKEDGLVLHKRLSQVDPEMAAKLHPHDKRKVARSLQVFEETGISHSEFLHRQHTEEGGGPLGGPLKFSNPCILWLHADQAVLDERLDKRVDDMLAAGLLEELRDFHRRYNQKNVSENSQDYQHGIFQSIGFKEFHEYLITEGKCTLETSNQLLKKGIEALKQVTKRYARKQNRWVKNRFLSRPGPIVPPVYGLEVSDVSKWEESVLEPALEIVQSFIQGHKPTATPIKMPYNEAENKRSYHLCDLCDRIIIGDREWAAHIKSKSHLNQLKKRRRLDSDAVNTIESQSVSPDHNKEPKEKGSPGQNDQELKCSV [TRIT1]”, the “solubility change mitosis (log2)” value in the data set on HeLa Kyoto [1] is -0.137. Besides, the melting temperature amounted to 53.3 °C with HeLa Kyoto [2] (cell cycle stage: G1/S) and 49.1 °C with HeLa Kyoto [2] (cell cycle stage: mitosis). For the same sequence, in the data set with HeLa Kyoto [3], the “solubility in G1/S (log2)” value is 0.0861. For the same sequence, the thermal stability score with HeLa Kyoto [4] (setting [5]) was -0.00673; in the data set with HeLa Kyoto [4] (cell cycle stage: mitosis), 0.208.

Consider “MTLESMMACCLSDEVKESKRINAEIEKQLRRDKRDARRELKLLLLGTGESGKSTFIKQMRIIHGAGYSEEDKRGFTKLVYQNIFTAMQAMIRAMETLKILYKYEQNKANALLIREVDVEKVTTFEHQYVSAIKTLWEDPGIQECYDRRREYQLSDSAKYYLTDVDRIATLGYLPTQQDVLRVRVPTTGIIEYPFDLENIIFRMVDVGGQRSERRKWIHCFENVTSIMFLVALSEYDQVLVESDNENRMEESKALFRTIITYPWFQNSSVILFLNKKDLLEDKILYSHLVDYFPEFDGPQRDAQAAREFILKMFVDLNPDSDKIIYSHFTCATDTENIRFVFAAVKDTILQLNLKEYNLV [GNA11]”, for which the “solubility change mitosis (log2)” value in the data set on HeLa Kyoto [1] was -0.121. Also, the melting temperature is 51.1 °C in the data set on HeLa Kyoto [2] (cell cycle stage: G1/S) and 50.6 °C with HeLa Kyoto [2] (cell cycle stage: mitosis). For the same sequence, the “solubility in G1/S (log2)” value with HeLa Kyoto [3] is -0.276. Besides, the thermal stability score worked out at 0.848 in the data set with HeLa Kyoto [4] (setting [5]) and 0.911 with HeLa Kyoto [4] (cell cycle stage: mitosis).

“MGRLASRPLLLALLSLALCRGRVVRVPTATLVRVVGTELVIPCNVSDYDGPSEQNFDWSFSSLGSSFVELASTWEVGFPAQLYQERLQRGEILLRRTANDAVELHIKNVQPSDQGHYKCSTPSTDATVQGNYEDTVQVKVLADSLHVGPSARPPPSLSLREGEPFELRCTAASASPLHTHLALLWEVHRGPARRSVLALTHEGRFHPGLGYEQRYHSGDVRLDTVGSDAYRLSVSRALSADQGSYRCIVSEWIAEQGNWQEIQEKAVEVATVVIQPSVLRAAVPKNVSVAEGKELDLTCNITTDRADDVRPEVTWSFSRMPDSTLPGSRVLARLDRDSLVHSSPHVALSHVDARSYHLLVRDVSKENSGYYYCHVSLWAPGHNRSWHKVAEAVSSPAGVGVTWLEPDYQVYLNASKVPGFADDPTELACRVVDTKSGEANVRFTVSWYYRMNRRSDNVVTSELLAVMDGDWTLKYGERSKQRAQDGDFIFSKEHTDTFNFRIQRTTEEDRGNYYCVVSAWTKQRNNSWVKSKDVFSKPVNIFWALEDSVLVVKARQPKPFFAAGNTFEMTCKVSSKNIKSPRYSVLIMAEKPVGDLSSPNETKYIISLDQDSVVKLENWTDASRVDGVVLEKVQEDEFRYRMYQTQVSDAGLYRCMVTAWSPVRGSLWREAATSLSNPIEIDFQTSGPIFNASVHSDTPSVIRGDLIKLFCIITVEGAALDPDDMAFDVSWFAVHSFGLDKAPVLLSSLDRKGIVTTSRRDWKSDLSLERVSVLEFLLQVHGSEDQDFGNYYCSVTPWVKSPTGSWQKEAEIHSKPVFITVKMDVLNAFKYPLLIGVGLSTVIGLLSCLIGYCSSHWCCKKEVQETRRERRRLMSMEMD [PTGFRN]”: in the data set with HeLa Kyoto [1], the “solubility change mitosis (log2)” value was -0.133. The figures for the melting temperature with HeLa Kyoto [2] (cell cycle stage: G1/S) and in the data set on HeLa Kyoto [2] (cell cycle stage: mitosis) were 56.7 °C and 57.1 °C, respectively. For the same sequence, the “solubility in G1/S (log2)” value with HeLa Kyoto [3] stood at 0.0152. Further, the thermal stability score in the data set with HeLa Kyoto [4] (setting [5]) was -2.55; with HeLa Kyoto [4] (cell cycle stage: mitosis), -2.42.

These data come from the supplement of paper PMC5998384.
